In article PMC4627230, “Identification of TAX2 peptide as a new unpredicted anti-cancer agent” (Oncotarget, 2015):

Target: T1, CD36, endogenous in HUVECs (human (endogenous in HUVECs), UniProt P16671 1-472)
T1 construct: CD36, endogenous in HUVECs; immunoprecipitated with anti-CD36; also called CD36-containing complexes; source: endogenous, HUVEC whole cell extracts
Experiment: co-IP; antibody (anti-CD47 B6H12, anti-CD36, anti-FGF2, anti-VEGF, anti-β1 integrin, anti-LRP1 heavy chain) covalently coupled to resin (Pierce Co-IP kit), incubated with whole HUVEC protein lysate (or conditioned media) overnight at 4°C, no cross-linker; cells treated with 100 μM TAX2 or control peptide; for VEGFR2 also 30 ng/mL VEGF for 5 min; immunoblot
Conditions: partners not purified

T1 sequence (P16671 whole entry): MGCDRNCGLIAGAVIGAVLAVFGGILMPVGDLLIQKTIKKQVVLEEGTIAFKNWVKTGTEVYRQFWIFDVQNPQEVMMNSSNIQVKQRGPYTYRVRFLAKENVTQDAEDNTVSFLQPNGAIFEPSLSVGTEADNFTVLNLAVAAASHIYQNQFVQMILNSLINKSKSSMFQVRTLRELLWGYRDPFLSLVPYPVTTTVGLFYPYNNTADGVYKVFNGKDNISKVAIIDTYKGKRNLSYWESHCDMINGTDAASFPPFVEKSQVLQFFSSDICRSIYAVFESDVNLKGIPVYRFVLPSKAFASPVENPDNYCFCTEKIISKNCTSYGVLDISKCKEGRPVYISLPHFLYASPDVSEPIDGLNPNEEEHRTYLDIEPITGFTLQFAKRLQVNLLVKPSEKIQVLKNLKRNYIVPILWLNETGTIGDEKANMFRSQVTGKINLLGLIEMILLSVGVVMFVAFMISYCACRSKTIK

B1: thrombospondin-1 (TSP-1), endogenous in HUVECs (natural protein)
chain: not shown
notes: thrombospondin-1, endogenous in human umbilical vein endothelial cells; detected by anti-TSP-1 (clone A6.1); source: endogenous, HUVEC protein lysate or conditioned media
fold increase of co-immunoprecipitated TSP-1 with TAX2 (100 μM) against control: 3 fold
